Reference: paper PMC9756944

Test system: HupA (HU homologue) (Streptomyces coelicolor)
Test: EMSA (agarose)
Details: Buffer B: 50 mM NaH2PO4 pH 8.1, 300 mM NaCl, 10% glycerol, 0-40 uM HupA, 120 ng (3.6 nM) pUC19, 3 min room temperature then 15 min 37 C, 1% agarose in TAE …

Row | Substance | binding (bound at 15 uM HupA, 3.6 nM plasmid, 300 mM NaCl) [µM] | binding (relaxed by E. coli topoisomerase I (NEB), enzyme inactivated at 65 C) [µM]
1 | pUC19 negatively supercoiled | 15 | 
2 | pUC19 relaxed by E. coli topoisomerase I |  | 40
